Results published in the supplement of paper PMC10065799, “High-throughput profiling of sequence recognition by tyrosine kinases and SH2 domains using bacterial peptide display” (eLife, 2023).

Tested on: AncSZ
Assay: phosphorylation enrichment, bacterial display (enrichment ratio); higher = better substrate or ligand; peptides without Tyr show the background
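Further: 11-residue human phosphosite peptides and single-mutation variants displayed on the E. coli surface, counted by deep sequencing, each peptide's frequency after selection divided by its frequency in the unselected input library; frequency after pTyr selection over input frequency; kinase dosed for 20-30% of maximal phosphorylation in three min.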

Sequence | phosphorylation enrichment
PFSNSYENSLI [EPOR_Y489_P488S_YF] | 1.4
GHRPVYSEDEQ [CHST6_Y362_Y358H] | 1.05
IEENGYNTYAS [FGF10_Y161] | 1.02
SVTCTNSPALN [TP53_Y126_Y126N] | 0.907
DGFIDYAEFAK [MCFD2_Y138_YF] | 1.13
VFFDLYGGEKF [PTPN11_Y66_D61V_YF] | 1.03
DGSALYTGSAL [COL6A3_Y524] | 0.612
AHAGEYGEEAL [HBA1_Y25_A27E] | 1.25
RLKAKYAAATG [GLI3_Y933] | 0.64
YGAHKYHPLPV [OAT_Y55_N54K] | 0.657
AISEGYKDFRA [CDA_Y79_V75I] | 0.617
ARKWGYTVKGI [OAT_Y158] | 0.914
FCRHNYGVVES [HLA-DRB1_Y112_YF] | 0.569
EKMWSYMKSAE [GRIA3_Y705] | 0.939
KNRDVYSSDYF [USP24_Y2134] | 1.1
LIDSSYLTPTA [GREB1L_Y1063_R1066P] | 0.919
FEGAIYRKDIG [GART_Y417_V421I] | 0.868

Sequence | phosphorylation enrichment
RQAQAYRGQRV [TSHR_Y706] | 1.82
LIHLHYIRKDF [BBS4_Y43_YF] | 1.51
QTLTDYDIRFF [CSNK2A1_Y131_YF] | 1.16
REVPVYTYSEP [FAM120B_Y368_D370Y] | 3.86
IQRSLYDRPAS [PDGFRA_Y762] | 0.699
TKDTFYKQPMF [GBA_Y451] | 0.583
PLDGEYVTLQI [TP53_Y327_F328V] | 1.56
LIGTPYWMAPE [PAK5_Y608_V604I] | 1.74
RSHLPYDVTPE [IQGAP3_Y1098] | 1.82
EAVLHYKHQNQ [MTOR_Y1804] | 0.632
VPLATYMQIYK [RPL21_Y30_R32Q] | 0.749
ARSHIYTFASC [MEFV_Y741] | 0.932
GLGVTYEQALA [MAP2_Y996] | 0.712
DFRTTYVNANE [KCNH2_Y475_N470D] | 0.732
FIPFRYPKEFQ [IDS_Y234_H229Y_YF] | 0.705
VVHSSYDEIEG [SEC24A_Y263] | 1.04

Molecular target: MERTK (UniProt Q12866)
Assay: as above

MERTK, sequence (Q12866 whole entry, looked up): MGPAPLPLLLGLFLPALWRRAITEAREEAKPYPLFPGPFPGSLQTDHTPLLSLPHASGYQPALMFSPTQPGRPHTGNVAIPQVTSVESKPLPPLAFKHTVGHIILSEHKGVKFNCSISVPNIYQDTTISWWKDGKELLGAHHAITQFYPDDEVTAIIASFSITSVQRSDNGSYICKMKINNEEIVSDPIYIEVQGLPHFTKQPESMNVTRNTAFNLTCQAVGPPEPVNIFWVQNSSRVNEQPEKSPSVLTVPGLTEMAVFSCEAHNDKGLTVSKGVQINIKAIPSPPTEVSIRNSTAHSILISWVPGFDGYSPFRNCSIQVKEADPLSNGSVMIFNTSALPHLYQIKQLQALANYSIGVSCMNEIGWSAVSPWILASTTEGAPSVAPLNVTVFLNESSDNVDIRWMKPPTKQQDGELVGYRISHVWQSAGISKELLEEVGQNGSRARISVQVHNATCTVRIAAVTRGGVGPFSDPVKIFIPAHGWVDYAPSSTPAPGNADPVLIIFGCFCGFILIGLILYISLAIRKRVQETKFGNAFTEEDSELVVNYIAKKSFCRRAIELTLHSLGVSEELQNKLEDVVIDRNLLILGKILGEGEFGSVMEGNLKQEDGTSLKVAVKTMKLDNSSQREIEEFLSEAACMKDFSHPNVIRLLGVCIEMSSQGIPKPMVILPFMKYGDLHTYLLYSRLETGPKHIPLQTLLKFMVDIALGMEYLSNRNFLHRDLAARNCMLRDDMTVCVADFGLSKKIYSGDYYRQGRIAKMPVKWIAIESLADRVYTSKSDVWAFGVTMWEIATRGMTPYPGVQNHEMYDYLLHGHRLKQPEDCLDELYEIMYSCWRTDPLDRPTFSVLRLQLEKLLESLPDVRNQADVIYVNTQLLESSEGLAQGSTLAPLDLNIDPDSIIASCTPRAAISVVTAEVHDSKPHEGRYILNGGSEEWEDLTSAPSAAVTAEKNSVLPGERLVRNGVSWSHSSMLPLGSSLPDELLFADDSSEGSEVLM

Sequence | phosphorylation enrichment
PFSNSYENSLI [EPOR_Y489_P488S_YF] | 0.402
GHRPVYSEDEQ [CHST6_Y362_Y358H] | 0.437
IEENGYNTYAS [FGF10_Y161] | 0.422
SVTCTNSPALN [TP53_Y126_Y126N] | 0.487
DGFIDYAEFAK [MCFD2_Y138_YF] | 0.468
VFFDLYGGEKF [PTPN11_Y66_D61V_YF] | 0.517
DGSALYTGSAL [COL6A3_Y524] | 0.404
AHAGEYGEEAL [HBA1_Y25_A27E] | 0.544
RLKAKYAAATG [GLI3_Y933] | 0.414
YGAHKYHPLPV [OAT_Y55_N54K] | 0.442
AISEGYKDFRA [CDA_Y79_V75I] | 0.382
ARKWGYTVKGI [OAT_Y158] | 0.377
FCRHNYGVVES [HLA-DRB1_Y112_YF] | 0.44
EKMWSYMKSAE [GRIA3_Y705] | 0.381
KNRDVYSSDYF [USP24_Y2134] | 5.77
LIDSSYLTPTA [GREB1L_Y1063_R1066P] | 0.511
FEGAIYRKDIG [GART_Y417_V421I] | 0.451

Sequence | phosphorylation enrichment
RQAQAYRGQRV [TSHR_Y706] | 0.831
LIHLHYIRKDF [BBS4_Y43_YF] | 0.471
QTLTDYDIRFF [CSNK2A1_Y131_YF] | 0.531
REVPVYTYSEP [FAM120B_Y368_D370Y] | 5.36
IQRSLYDRPAS [PDGFRA_Y762] | 0.689
TKDTFYKQPMF [GBA_Y451] | 0.385
PLDGEYVTLQI [TP53_Y327_F328V] | 0.477
LIGTPYWMAPE [PAK5_Y608_V604I] | 1.32
RSHLPYDVTPE [IQGAP3_Y1098] | 1
EAVLHYKHQNQ [MTOR_Y1804] | 0.363
VPLATYMQIYK [RPL21_Y30_R32Q] | 0.541
ARSHIYTFASC [MEFV_Y741] | 0.808
GLGVTYEQALA [MAP2_Y996] | 0.372
DFRTTYVNANE [KCNH2_Y475_N470D] | 0.415
FIPFRYPKEFQ [IDS_Y234_H229Y_YF] | 0.409
VVHSSYDEIEG [SEC24A_Y263] | 0.429
